Test results reported in PMC8178248.
Several values for one entry are separate records, joined by “and”; a condition that tells them apart may be missing. Identical values can stand only once.

Experiments:
[1] = molecular target: DrdV restriction-modification enzyme (Deinococcus wulumuqiensis 479); experiment: cryo-EM structure
[2] = molecular target: DrdV restriction-modification enzyme (Deinococcus wulumuqiensis 479); experiment: cryo-EM structure; remark: listed apart in the source
[3] = molecular target: DrdV restriction-modification enzyme (Deinococcus wulumuqiensis 479); experiment: SEC
[4] = molecular target: DrdV restriction-modification enzyme (Deinococcus wulumuqiensis 479); experiment: negative stain EM

- stoichiometry N [1]: 3 and 4
- stoichiometry N [2]: 2
- stoichiometry N [3]: 4
- stoichiometry N [4]: 4
Substance: DrdV restriction-modification enzyme
